# In patent US6051232:
# Target: wild type RT1.A^a (rat MHC class I antigen) on transfected BUF (RT1^b) Morris hepatoma 7316A cells (rat)
# Experiment: flow cytometry on BUF hepatoma cells transfected with WT-RT1.A^a, FITC rabbit anti-rat Ig
substance,measurement,value
R2/15S anti-rat RT1.A^a class I polymorphic monoclonal antibody (tool reagent),positive staining (percent of cells),> 90%
